From patent US20230035659A1, “Compositions and Methods for TTR Gene Editing and Treating ATTR Amyloidosis Comprising a Corticosteroid or Use Thereof” (Intellia Therapeutics, Inc., priority 2019, published 2023)
Strand notation (5' to 3'): a small letter for the sugar, then the base; units joined by * are phosphorothioate-linked, units joined directly phosphodiester-linked; [ ] holds rarer units or linkages, { } end groups; capitals alone tell only the bases. m = 2'-O-methyl; r = 2'-OH (RNA)

System: TTR
Assay: TTR editing in primary cyno hepatocytes treated with LNP formulated Spy Cas9 mRNA (SEQ ID NO: 2) and sgRNAs, 12.5 ng mRNA
Type: cell-based, cynomolgus monkey
Conditions: LNP formulated Spy Cas9 mRNA (SEQ ID NO: 2) and cyno matched sgRNA, lysed 72 hours post treatment
Procedure: Primary liver hepatocytes. Primary human liver hepatocytes (PHH) and primary cynomolgus liver hepatocytes (PCH) (Gibco) were cultured per the manufacturer's protocol (Invitrogen, protocol 11.28.2012). In brief, the cells were thawed and resuspended in hepatocyte thawing medium with supplements (Gibco, Cat. CM7000) followed by centrifugation at 100 g for 10 minutes for human and 80 g for 4 minutes for cyno. The supernatant was discarded and the pelleted cells resuspended in hepatocyte plating medium plus supplement pack (Invitrogen, Cat. A1217601 and CM3000). Cells were counted and plated on Bio-coat collagen I coated 96-well plates (ThermoFisher, Cat. 877272) at a density of 33,000 cells/well for human or 60,000 cells/well for cyno (or 65,000 cells/well when assaying effects on TTR protein, described further below). Plated cells were allowed to settle and adhere for 6 or 24 hours in a tissue culture incubator at 37° C. and 5% CO2 atmosphere. After incubation cells were checked for monolayer formation and media was replaced with hepatocyte culture medium with serum-free supplement pack (Invitrogen, Cat. A1217601 and CM4000).
In general, the lipid nanoparticle components were dissolved in 100% ethanol with the lipid component of various molar ratios. The RNA cargos were dissolved in 25 mM citrate, 100 mM NaCl, pH 5.0, resulting in a concentration of RNA cargo of approximately 0.45 mg/mL. The LNPs were formulated with a lipid amine to RNA phosphate (N:P) molar ratio of about 4.5 or about 6, with the ratio of mRNA to gRNA at 1:1 by weight.
The LNPs were formed by microfluidic mixing of the lipid and RNA solutions using a Precision Nanosystems NanoAssemblr™ Benchtop Instrument, according to the manufacturer's protocol. A 2:1 ratio of aqueous to organic solvent was maintained during mixing using differential flow rates. […]
Additional PCR was performed per the manufacturer's protocols (Illumina) to add chemistry for sequencing. […] The reads were aligned to a reference genome (e.g., the human reference genome (hg38), the cynomologus reference genome (mf5), the rat reference genome (rn6), or the mouse reference genome (mm10)) after eliminating those having low quality scores. The resulting files containing the reads were mapped to the reference genome (BAM files), where reads that overlapped the target region of interest were selected and the number of wild type reads versus the number of reads which contain an insertion, substitution, or deletion was calculated.
The editing percentage (e.g., the “editing efficiency” or “percent editing” or “indel frequency”) is defined as the total number of sequence reads with insertions/deletions (“indels”) or substitutions over the total number of sequence reads, including wild type. […]

B1: G000502: TTR Cyno specific sgRNA modified sequence, SEQ ID NO: 114; guide sequence of CR000689; cross homologous between mouse and cyno (nucleic acid)
guide: mA*mC*mA*rCrArArArUrArCrCrArGrUrCrCrArGrCrGrGrUrUrUrUrArGrAmGmCmUmAmGmAmAmAmUmAmGmCrArArGrUrUrArArArArUrArArGrGrCrUrArGrUrCrCrGrUrUrArUrCrAmAmCmUmUmGmAmAmAmAmAmGmUmGmGmCmAmCmCmGmAmGmUmCmGmGmUmGmCmU*mU*mU*mU
  12.5 ng mRNA, 3.9 nM sgRNA, Avg % Edit: 80.70%
